{"source": "paper PMC9234588", "key": {"[1]": {"biological_target": "Fluorescently labelled MukB (MukB-Cy5) (E. coli) (UniProt P22523)", "test": "single-molecule TIRF fluorescence intensity counting; MukB-Cy5 on 'bulbs' of doubly tethered λDNA; 10 nM MukB incubated with DNA at 50 mM NaCl until compacted, then 10 nM MukF, 20 nM MukE and 1 mM ATP-Mg2+ flowed in; number from the intensity against that of a single MukB bound to glass; 107 DNAs"}, "[2]": {"biological_target": "MukB^EQ-Cy5 (EQ MukB mutant, binds but cannot hydrolyse ATP) (E. coli) (UniProt P22523)", "test": "single-molecule TIRF fluorescence intensity counting; MukB^EQ-Cy5 with MukE, truncated monomeric MukF (MonoMukF) and ATP-Mg2+ on doubly tethered λDNA, 150 mM NaCl buffer, ~1 pN of applied force; 164 clusters"}}, "data": [{"substance": "Fluorescently labelled MukB (MukB-Cy5) (from UniProt P22523 1-1486) (natural protein)", "values": [{"measurement": "stoichiometry N", "setting": "[1]", "result": "2 to 4"}]}, {"substance": "MukB^EQ-Cy5 (EQ MukB mutant, binds but cannot hydrolyse ATP) (from UniProt P22523 1-1486) (natural protein)", "values": [{"measurement": "stoichiometry N", "setting": "[2]", "result": 2}]}]}
